Key:
[1] = target: T1, FRAP-Tgase variant (thermostable variant of Streptomyces mobaraensis Tgase having a FRAP tetrapeptide at the N-terminal end)
T1 chain: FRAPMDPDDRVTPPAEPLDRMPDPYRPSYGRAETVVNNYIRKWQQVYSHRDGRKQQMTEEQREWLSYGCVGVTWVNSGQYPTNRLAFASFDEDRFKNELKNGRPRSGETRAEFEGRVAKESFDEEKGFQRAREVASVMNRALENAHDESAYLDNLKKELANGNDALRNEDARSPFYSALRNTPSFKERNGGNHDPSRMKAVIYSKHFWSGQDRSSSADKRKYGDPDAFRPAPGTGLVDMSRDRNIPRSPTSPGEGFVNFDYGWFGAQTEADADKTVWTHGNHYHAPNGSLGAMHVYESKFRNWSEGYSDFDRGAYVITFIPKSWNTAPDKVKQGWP

[2] = target: T2, Pro-Tgase variant (thermostable variant of Streptomyces mobaraensis Tgase in zymogen form)
T2 chain: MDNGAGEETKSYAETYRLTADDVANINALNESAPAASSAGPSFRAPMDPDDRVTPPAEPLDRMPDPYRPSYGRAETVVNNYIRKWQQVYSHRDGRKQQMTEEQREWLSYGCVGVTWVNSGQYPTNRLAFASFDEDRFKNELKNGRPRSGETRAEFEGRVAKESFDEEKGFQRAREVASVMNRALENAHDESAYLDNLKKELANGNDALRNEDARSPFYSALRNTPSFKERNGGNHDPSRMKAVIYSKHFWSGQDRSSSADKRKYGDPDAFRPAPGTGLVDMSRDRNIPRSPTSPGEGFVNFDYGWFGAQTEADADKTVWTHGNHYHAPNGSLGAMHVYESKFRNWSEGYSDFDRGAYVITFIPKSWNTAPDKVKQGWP

B1: Streptomyces mobaraensis transglutaminase-activating tripeptidyl aminopeptidase (SM-TAP), mature, catalytically active form (protein)
chain: QADIKDRILKIPGMKFVEEKPYQGYRYLVMTYRQPVDHRNPGKGTFEQRFTLLHKDTDRPTVFFTSGYNVSTNPSRSEPTRIVDGNQVSMEYRFFTPSRPQPADWSKLDIWQAASDQHRLYQALKPVYGKNWLATGGSKGGMTATYFRRFYPNDMNGTVAYVAPNDVNDKEDSAYDKFFQNVGDKACRTQLNSVQREALVRRDEIVARYEKWAKENGKTFKVVGSADKAYENVVLDLVWSFWQYHLQSDCASVPATKASTDELYKFIDDISGFDGYTDQGLERFTPYYYQAGTQLGAPTVKNPHLKGVLRYPGINQPRSYVPRDIPMTFRPGAMADVDRWVREDSRNMLFVYGQNDPWSGEPFRLGKGAAARHDYRFYAPGGNHGSNIAQLVADERAKATAEVLKWAGVAPQAVQKDEKAAKPLAPFDAKLDRVKNDKQSALRP
**Q.** B1 was tested. Which “proteolytic cleavage by soluble SM-TAP: UPLC-MS total area count of FRAP tetrapeptide, and N-terminal sequencing” value [1] did it give?
**A.** N-terminal peptide sequencing, performed as described in Example 2 above, confirmed that the FRAP tetrapeptide had been removed from the N-terminal end of the FRAP-Tgase variant (SEQ ID NO:5) resulting in a mature, catalytically active Tgase variant (SEQ ID NO:6)

**Q.** And the “proteolytic digestion by SM-TAP immobilized on porous solid supports: UPLC-MS, colorimetric Tgase activity assay, N-terminal sequencing” value [1]?
**A.** Activity assay results showed that SM-TAP retained protease activity when immobilized on all the porous solid supports shown in Table 2

**Q.** What about the “proteolytic digestion by co-immobilized TAMEP and SM-TAP: UPLC-MS FRAP tetrapeptide area counts, N-terminal sequencing” value [1] of the same protein?
**A.** Activity assay results showed that co-immobilized TAMEP and SM-TAP retained protease activity on all the porous solid supports set forth in Table 3 below

B2: Streptomyces mobaraensis transglutaminase-activating M4 metalloprotease (TAMEP), mature, catalytically active form (protein)
chain: GTGNSQHSGQVQIGTTKSGSSYQMNDTTRGGHKTYNLNHGSSGTGTLFTDSDDVWGNGTNSDPATAGVDAHYGAQLTWDYYKNVHGRNGIRGDGVGAYSRVHYGNNYVNAFWDDSCFCMTYGDGNGIPLTSIDVAAHEMTHGVTSATANLTYSGESGGLNEATSDMMATAVEFWANNPADPGDYLIGEKININGDGTPLRYMDKPSKDGASKDAWYSGLGGIDVHYSSGPANHWFYLASEGSGPKDIGGVHYDSPTSDGLPVTGVGRDNAAKIWFKALTERMQSNTDYKGARDATLWAAGELFGVNSDTYNNVANAWAAINVGPRASSGVSVTSPGDQTSIVNQAVSLQIKATGSTSGALTYSATGLPAGLSINASTGLISGTPTTTGTSNVTVTVKDSAGKTGSTSFKWTVNTTGGGSVFENTTQVAIPDAGAAVTSPIVVTRSGNGPSALKVDVNITHTYRGDLTIDLVAPNGKTWRLKNSDAWDSAADVSETYTVDASSVSANGTWKLKVQDVYSGDSGTIDKWRLTF
**Q.** What does the source list for B2?
**A.** proteolytic cleavage by soluble TAMEP: UPLC-MS total ion counts of the cleaved pro-peptide, and N-terminal sequencing [2]: N-terminal peptide sequencing, performed as described in Example 2 above, confirmed that the FRAP amino acid sequence was present on the N-terminal end of the catalytically active, not mature FRAP-Tgase variant (SEQ ID NO:5); proteolytic digestion by TAMEP immobilized on porous solid supports: UPLC-MS, colorimetric Tgase activity assay, N-terminal sequencing [2]: Activity assay results showed that TAMEP retained protease activity when immobilized on all the porous solid supports shown in Table 2; proteolytic digestion by co-immobilized TAMEP and SM-TAP: UPLC-MS FRAP tetrapeptide area counts [2]: Activity assay results showed that co-immobilized TAMEP and SM-TAP retained protease activity on all the porous solid supports set forth in Table 3 below

From patent US20240093162
